Test results published in publication PMC4624055 (The Journal of allergy and clinical immunology, 2015).

Target: the molecule itself
Test: crystal structure

B1: Bla g 5 (enzyme, Blattella germanica, UniProt O18598 1-204, looked up)
chain: MAPSYKLTYCPVKALGEPIRFLLSYGEKDFEDYRFQEGDWPNLKPSMPFGKTPVLEIDGKQTHQSVAISRYLGKQFGLSGKDDWENLEIDMIVDTISDFRAAIANYHYDADENSKQKKWDPLKKETIPYYTKKFDEVVKANGGYLAAGKLTWADFYFVAILDYLNHMAKEDLVANQPNLKALREKVLGLPAIKAWVAKRPPTDL
  stoichiometry N: 2

B2: Asc s 13 (enzyme, Ascaris suum, UniProt P46436 1-206, looked up)
chain: MPQYKLTYFDIRGLGEGARLIFHQAGVKFEDNRLKREDWPALKPKTPFGQLPLLEVDGEVLAQSAAIYRYLGRQFGLAGKTPMEEAQVDSIFDQFKDFMAELRPCFRVLAGFEEGDKEKVLKEVAVPARDKHLPLLEKFLAKSGSEYMVGKSVTWADLVITDSLASWESLIPDFLSGHLQLKKYIEHVRELPNIKKWIAERPKTPY
  stoichiometry N: 2
